Test results as given in patent US11766414B2, “Compositions, delivery systems, and methods useful in tumor therapy” (Indi Molecular, Inc., priority 2020, dated 2023).
Blank lines part the entries; values can stand above or below the molecule they belong to. Starred links: 1 amine or outer side, 2 acyl side, 3 side chain; linkers in the order of their positions; H or OH if unused. Positions of bridges follow the written chain, without caps; N, C: chain ends. Non-standard residues stand in square brackets, D forms with d. Residues, ends and D or L forms follow the SMILES beside them. Groups on a side chain read outwards from the residue. Triazole bridges read from a SMILES are 1,4-linked. *: point of attachment. DOTA = O=C(O)CN1CCN(CC(=O)O)CCN(CC(=O)*)CCN(CC(=O)O)CC1; Pteroyl = Nc1nc2ncc(CNc3ccc(C(=O)*)cc3)nc2c(=O)[nH]1; Biotin = O=C1N[C@H]2[C@H](CS[C@H]2CCCCC(=O)*)N1; Butanoyl(4-(4-MePh)) = Cc1ccc(CCCC(=O)*)cc1; Lys(N3) = [N-]=[N+]=NCCCC[C@H](N)C(=O)O; γGlu = O=C(O)[C@H](CCC(=O)[*:2])N[*:1]; AEEEA = NCCOCCOCCOCC(=O)O; Pra = C#CC[C@H](N)C(=O)O; X1 = NOCC(=O)*

What was measured:
human recombinant NEP = human recombinant NEP (Homo sapiens, UniProt P08473); assay: NEP enzymatic cleavage assay (MALDI, HPLC); format: biochemical
Sequence of human recombinant NEP (P08473 whole entry): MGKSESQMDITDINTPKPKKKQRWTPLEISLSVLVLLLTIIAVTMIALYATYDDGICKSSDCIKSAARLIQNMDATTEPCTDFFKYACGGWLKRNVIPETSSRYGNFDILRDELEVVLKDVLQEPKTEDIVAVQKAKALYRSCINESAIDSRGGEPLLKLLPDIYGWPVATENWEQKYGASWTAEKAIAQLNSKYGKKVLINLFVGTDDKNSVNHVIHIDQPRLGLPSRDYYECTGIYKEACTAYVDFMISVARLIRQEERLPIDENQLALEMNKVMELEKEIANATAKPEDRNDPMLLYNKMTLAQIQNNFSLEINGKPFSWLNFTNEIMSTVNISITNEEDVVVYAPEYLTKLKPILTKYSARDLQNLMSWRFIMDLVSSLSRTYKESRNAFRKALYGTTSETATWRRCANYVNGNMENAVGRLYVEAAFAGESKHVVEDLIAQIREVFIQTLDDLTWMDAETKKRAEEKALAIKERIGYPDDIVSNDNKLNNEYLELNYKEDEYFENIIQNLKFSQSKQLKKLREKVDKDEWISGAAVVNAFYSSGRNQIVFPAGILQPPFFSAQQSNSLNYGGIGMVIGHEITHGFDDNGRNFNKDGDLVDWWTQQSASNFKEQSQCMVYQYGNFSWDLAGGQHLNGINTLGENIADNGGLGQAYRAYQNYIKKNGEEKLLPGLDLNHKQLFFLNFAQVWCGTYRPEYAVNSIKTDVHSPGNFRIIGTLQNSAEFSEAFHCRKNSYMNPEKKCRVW
Procedure: In order to test the susceptibility of GFK and MVK linkers to NEP-mediated cleavage, the peptide (Folate-hshta-Lys(MPBA)-Gly-Phe-Lys(DOTA) (SEQ ID NO:6)) was incubated with human recombinant NEP and analyzed the solution for the presence of cleaved adducts. MALDI was utilized to monitor the cleavage of a PCC heterobiligand that contains a NEP protease recognizable sequence (G-F-K). The PCC concentration was constant and the NEP concentration was titrated down from 10 nM to 1 nM, 0.1 nM, 0.01 nM, and no NEP. The NEP-mediated cleaved adduct was identified by mass. 10 μM PCC containing the GFK linker was combined with varying amounts of NEP. […] Below 0.1 nM no cleavage was observed. • Folate-hshta-Lys(MPBA)-Gly-Phe-Lys(DOTA) (SEQ ID NO:6) • Molecular weight 2231.42
The NEP-mediated cleavage was also monitored by HPLC. In agreement with the MALDI spectra, the HPLC chromatograms show depletion of the parent brush-border heterobiligand (retention time 17.1 minutes), dose-dependent on the amount of NEP spiked into the sample (10 nM, 1 nM, 0.1 nM, 0.01 nM, and no NEP). An appearance of a new peak (retention time 16.5 minutes) in concert with the depletion of the starting material is presumed to be the cleaved folate-containing peptide.
In order to test the specificity of NEP, a non-cleavable linker (PEG3) was also assayed.
To reduce the radioactive dose to the kidney, Indi ^177Lu-7327 was constructed to incorporate a GFK linker that is susceptible to cleavage by enzymes found predominately in the kidney's brush border. These enzymes cleave off the radionuclide-chelator complex, which is quickly eliminated by the kidney for excretion in the urine. The zinc metalloprotease neprilysin (NEP) is expressed with high abundance in the kidney. […] To confirm NEP-mediated cleavage of the GFK linker in Indi 7327, the peptide was incubated with recombinant human NEP at 37° C. for 1 h and analyzed by matrix-assisted laser desorption/ionization mass spectrometry (MALDI-MS) for the evolution of cleaved adducts (FIG. 42). […] The expected cleaved adduct (mass: 1283.16 m/z) appears in the samples containing 10, 1.0, and 0.1 nM NEP. […] Below 0.1 nM NEP, no cleavage was observed. In addition to confirming the selectivity of NEP for the GFK linker, it is also important to note that the remaining portions of the Indi 7327 were impervious to the enzyme.

[1] = Plasma protein binding, CD-1 mouse plasma; format: in vitro ADME; conditions: for fraction unbound / recovery: CD-1 mouse plasma; for fraction unbound: read-out: Plasma % Bound, Mu (converted)
Procedure: (§1) HTD 96 a/b regenerated cellulose membrane strips with mass cutoff of 12-14 kDa were soaked in ultra-pure water at room temperature for 1 hour. Each swelled membrane was then soaked in 20:80 ethanol:water for 20 minutes.
(§2) Just prior to the experiment, the membranes were re-soaked in ultra-pure water. Plasma was prepared by thawing under cold water. The plasma was centrifuged to remove any clots and pH was adjusted to 7.0-8.0. Test articles and control compounds were diluted to 2 μM. The dialysis device was loaded by transferring 150 μL of the test article (in triplicate) to the donor side. The dialysis device was placed in a humidified incubator at 37° C. with 5% CO2 in a shaking platform that rotated slowly for 4 hours. After incubation, 50 μL of the supernatant was taken from both sides and analyzed by LC-MS/MS.

[2] = Plasma protein binding, human plasma; format: in vitro ADME; conditions: for recovery / fraction unbound: human plasma; for fraction unbound: read-out: Plasma % Bound, Hu (converted)
Procedure: as §1, §2

[3] = Maximum tolerated dose (MTD) tolerability study
Procedure: In order to establish a maximum tolerated dose (MTD), a tolerability study was undertaken testing increasing amounts of the 177-Lu heterobiligand 7327 (folate-hshta-Gly-Phe-Lys(DOTA)). Animals were monitored for signs of toxicity and weighed twice weekly. […] The second and third doses were administered 21 days following the previous dose.
Efforts were undertaken to evaluate 177-Lu 6305 (folate-hshta-Lys(MPBA)-Gly-Phe-Lys(DOTA)), a compound with a brush border cleavable linker in addition to an albumin binder. […] Two separate MTD experiments were undertaken. […] A second experiment interrogated lower doses.
In order to establish a MTD, dose range finding studies were undertaken testing increasing amounts of Indi ^177Lu-7327 in healthy, non-tumor bearing female NSG mice using IV administration (FIGS. 34 and 35). Mouse body weight and behavior were monitored. […] The second and third doses were administered 21 days following the previous dose.

[4] = Gamma counting of tissue radioactivity; format: in vivo, mouse; conditions: for kidney radioactivity / liver radioactivity / tumor radioactivity: Day 28 post-injection
Description: 7 days after Lu177-#6305 injection, the 29.6 MBq group lost 20% body weight. These mice were sacrificed. Tissues and plasma were collected for evaluation of radioactivity by gamma counting. The toxicity may have resulted from its accumulation in the kidneys and liver (FIG. 28). At study endpoint (Day 28 post-injection), plasma, tumors, kidneys, lungs, hearts, livers, and muscles from 9.25 MBq and 14.8 MBq treatment groups were collected for evaluation of radioactivity by gamma counting (FIG. 29).

OVCAR3 xenograft [5] = assay: 177Lu FOLR1 radioligand therapy of OVCAR3 xenografts; format: in vivo, mouse; conditions: for tumor response: single dose at 18.5 MBq/nmol, tumor size (avg.) 148 mm^3
Procedure: Water and food were provided ad libitum. […] Tumor growth was monitored by caliper measurements.
OVCAR3 tumor bearing mice were used to study FOLR1-directed radioligand therapy (RLT) for treatment of ovarian cancer. Animals were administered a single dose of heterobiligand (vehicle control) or 111, 37, 18.5, 9.25, or 3.7 MBq [^177Lu]DOTA-labeled heterobiligand. Mice received the dose intravenously (i.v.) via the tail vein. To monitor the effect of the RLT, tumor size measurements were taken twice weekly and body weights were measured.
Single dose treatments at 18.5 MBq/nmol specific activity. OVCAR3 mouse model was used. 10^7 cell tumors were implanted in the mice one month before administration of ^177Lu-#6305. Five mice each were administered Cold #6305, 9.25 MBq Lu177-#6305, and 14.8 MBq Lu177-#6305, and two mice were administered 29.6 MBq Lu177-#6305. Tumor growth and body weight were then monitored.
Female NSG mice were implanted subcutaneously with OVCAR3 cells. Once tumors reached volumes of 200 mm^3, the animals were treated with 177-Lu 7327. Three treatment arms of 9.25 MBq, 14.8 MBq, and 29.6 MBq were studied.

OVCAR3 xenograft [6] = assay: as above; format: in vivo, mouse; conditions: single dose
[7] = tested on: OVCAR3 FOLR1+ cells (PC-3 FOLR1− cells as negative line); assay: Flow cytometry binding to FOLR1 (+) and FOLR1 (−) cell lines; format: cell-based, human; conditions: OVCAR3 vs PC-3, flow cytometry
Procedure: Both the kyeet (SEQ ID NO:9) and hshta (SEQ ID NO:6)-derived biligands were tested by flow cytometry for binding to FOLR1 (+) and FOLR1 (−) cell lines (FIGS. 6 and 7). The human ovarian adenocarcinoma-derived cell line OVCAR3 has robust FOLR1 expression and was selected as the FOLR1 (+) cell line. The human prostate adenocarcinoma-derived cell line PC-3 was selected as a FOLR1 (−) cell line.

[8] = read-out: Plasma protein binding % Recovery, Mu
[9] = read-out: Plasma protein binding % Recovery, Hu
[10] = 29.6 MBq group, Day 7 post-injection

Compound: Cc1ccc(CCCC(=O)NCCCC[C@H](NC(=O)[C@@H]2CCCCn3cc(nn3)C[C@H](NC(=O)CC[C@H](NC(=O)c3ccc(NCc4cnc5nc(N)[nH]c(=O)c5n4)cc3)C(=O)O)C(=O)N[C@H](Cc3c[nH]cn3)C(=O)N[C@H](CO)C(=O)N[C@H](Cc3c[nH]cn3)C(=O)N[C@H]([C@H](C)O)C(=O)N[C@H](C)C(=O)N2)C(=O)NCC(=O)N[C@@H](Cc2ccccc2)C(=O)N[C@@H](CCCCNC(=O)COCCOCCOCCNC(=O)CN2CCN(CC(=O)O)CCN(CC(=O)O)CCN(CC(=O)O)CC2)C(=O)O)cc1 [compound 3302, Fol-hshta-Lys(4-MPBA)-Gly-Phe-Lys(PEG3-DOTA)] ({Pteroyl-γGlu}-[Pra][dH][dS][dH][dT][dA][Lys(N3)]K(Butanoyl(4-(4-MePh)))GFK([AEEEA-DOTA])-OH; triazole 1-7)
in vitro Assay Data (NEP assay) (human recombinant NEP; Table 2): Cleavage of -G-F-K- | fraction unbound [1]: 0.035 | recovery [1, 8]: 103% | recovery [2, 9]: 88.1% | fraction unbound ([2]; human, plasma): 0.051

Compound: Cc1ccc(CCCC(=O)NCCCC[C@H](NC(=O)[C@@H]2CCCCn3cc(nn3)C[C@H](NC(=O)CC[C@H](NC(=O)c3ccc(NCc4cnc5nc(N)[nH]c(=O)c5n4)cc3)C(=O)O)C(=O)N[C@H](Cc3c[nH]cn3)C(=O)N[C@H](CO)C(=O)N[C@H](Cc3c[nH]cn3)C(=O)N[C@H]([C@H](C)O)C(=O)N[C@H](C)C(=O)N2)C(=O)NCC(=O)N[C@@H](Cc2ccccc2)C(=O)N[C@@H](CCCCNC(=O)CN2CCN(CC(=O)O)CCN(CC(=O)O)CCN(CC(=O)O)CC2)C(=O)O)cc1 (177Lu complex, metal not drawn) [Lu177-#6305] ({Pteroyl-γGlu}-[Pra][dH][dS][dH][dT][dA][Lys(N3)]K(Butanoyl(4-(4-MePh)))GFK(DOTA)-OH; triazole 1-7)
tolerability of second dose ([3]; 14.8-22.2 MBq, second dose administered 21 days): not tolerated | tolerability of second dose ([3]; 29.6-185 MBq, second dose 7 days after the first): not tolerated | body weight ([3]; 29.6 MBq, 37 MBq, 111 MBq, and 185 MBq, first dose): began to experience weight loss after the first dose | body weight ([3]; single dose of 14.8 MBq, 18.5 MBq, and 22.2 MBq): only minimal loss in body weight that quickly stabilized | kidney radioactivity ([4]; 9.25 MBq group): 414 CPM/g | liver radioactivity ([4]; 9.25 MBq group): 685 CPM/g | tumor radioactivity ([4]; 9.25 MBq group): 33 CPM/g | liver/kidney ratio ([4]; 14.8 MBq group on Day 28): 1.94 | kidney radioactivity ([4]; 14.8 MBq group): 653 CPM/g | liver radioactivity ([4]; 14.8 MBq group): 1,264 CPM/g | tumor radioactivity ([4]; 14.8 MBq group): 60 CPM/g | liver/kidney ratio ([4]; 29.6 MBq group on Day 7): 0.27 | radioactivity in the kidney [4, 10]: 394,834 CPM/g | radioactivity in the liver [4, 10]: 107,374 CPM/g | radioactivity in the tumor [4, 10]: 42,674 CPM/g | body weight change (OVCAR3 xenograft [5]; 9.25 MBq and 14.8 MBq, single dose): No significant body weight change | tumor response (OVCAR3 xenograft [5]; 9.25 MBq): nonresponse | tumor response (OVCAR3 xenograft [5]; 14.8 MBq): partial response | body weight lost (OVCAR3 xenograft [5]; 29.6 MBq group, 7 days after injection): 20% | OVCAR3 tumor growth (OVCAR3 xenograft [6]; 14.8 MBq): significantly slowed down OVCAR3 tumor growth | body weight change (OVCAR3 xenograft [6]; 29.6 MBq): substantial body weight decrease

Compound: C[C@H](O)[C@H]1NC(=O)[C@@H](CCC(=O)O)NC(=O)[C@@H](CCC(=O)O)NC(=O)[C@@H](Cc2ccc(O)cc2)NC(=O)[C@@H](CCCCN)NC(=O)[C@@H](NC(=O)COCCOCCOCCNC(=O)CCCC[C@@H]2SC[C@@H]3NC(=O)N[C@@H]32)Cc2cn(nn2)CCCC[C@@H](C(N)=O)NC1=O [kyeet] ({Biotin-AEEEA}-[Pra][dK][dY][dE][dE][dT][Lys(N3)]-NH2; triazole 1-7)
binding selectivity for FOLR1 (+) cells over FOLR1 (−) cells [7]: slight binding selectivity

Further lines, with some results ahead:

in vitro Assay Data (NEP assay) (human recombinant NEP; Table 2): Cleavage of -G-F-K-
Compound: C[C@H](O)[C@H]1NC(=O)[C@@H](Cc2c[nH]cn2)NC(=O)[C@@H](CO)NC(=O)[C@@H](Cc2c[nH]cn2)NC(=O)[C@@H](NC(=O)CC[C@H](NC(=O)c2ccc(NCc3cnc4nc(N)[nH]c(=O)c4n3)cc2)C(=O)O)Cc2cn(nn2)CCCC[C@@H](C(=O)NCCOCCOCCOCC(=O)NCC(=O)N[C@@H](Cc2ccccc2)C(=O)N[C@@H](CCCCNC(=O)CN2CCN(CC(=O)O)CCN(CC(=O)O)CCN(CC(=O)O)CC2)C(=O)O)NC(=O)[C@@H](C)NC1=O [compound 6307, Fol-hshta-PEG3-Gly-Phe-Lys(DOTA)] ({Pteroyl-γGlu}-[Pra][dH][dS][dH][dT][dA][Lys(N3)][AEEEA]GFK(DOTA)-OH; triazole 1-7)
fraction unbound [1]: 0.594 | recovery [1, 8]: 68.9% | recovery [2, 9]: 81.6% | fraction unbound ([2]; human, plasma): 0.587

in vitro Assay Data (NEP assay) (human recombinant NEP; Table 7, AO-containing constructs): Cleavage of —G—F—K-
Compound: C[C@H](O)[C@H]1NC(=O)[C@@H](Cc2cnc[nH]2)NC(=O)[C@@H](CO)NC(=O)[C@@H](Cc2cnc[nH]2)NC(=O)[C@@H](NC(=O)CC[C@H](NC(=O)c2ccc(NCc3cnc4nc(N)[nH]c(=O)c4n3)cc2)C(=O)O)Cc2cn(nn2)CCCC[C@@H](C(=O)NCC(=O)N[C@@H](Cc2ccccc2)C(=O)N[C@@H](CCCCNC(=O)CON)C(=O)O)NC(=O)[C@@H](C)NC1=O [compound 3303, Fol-hshta-Gly-Phe-Lys(AO)] ({Pteroyl-γGlu}-[Pra][dH][dS][dH][dT][dA][Lys(N3)]GFK(X1)-OH; triazole 1-7)
fraction unbound at 4 h, 2 μM ([1]; CD-1, mouse, plasma, AO-containing constructs, (FB), read-out: Plasma % Bound, Mu): 0.245 | recovery at 4 h, 2 μM ([1]; CD-1, mouse, plasma, AO-containing constructs, (FB), read-out: Plasma protein binding % Recovery, Mu): 77.7% | fraction unbound at 4 h, 2 μM ([2]; human, plasma, AO-containing constructs, (FB), read-out: Plasma % Bound, Hu): 0.19 | recovery at 4 h, 2 μM ([2]; human, plasma, AO-containing constructs, (FB), read-out: Plasma protein binding % Recovery, Hu): 80.6%
